The values that follow come from US5935824A, “Protein expression system” (Technologene, Inc., priority 1996, dated 1999).

No end group written: not given here. A value given as a limit tells only on which side of the number the result lay.

The target in data set [1] is T1, carboxypeptidase Y (CPD-Y) immobilized to Acti-Disk (Saccharomyces cerevisiae, UniProt P00729).
T1 construct: purchased Sigma
T1 sequence (P00729 112-532): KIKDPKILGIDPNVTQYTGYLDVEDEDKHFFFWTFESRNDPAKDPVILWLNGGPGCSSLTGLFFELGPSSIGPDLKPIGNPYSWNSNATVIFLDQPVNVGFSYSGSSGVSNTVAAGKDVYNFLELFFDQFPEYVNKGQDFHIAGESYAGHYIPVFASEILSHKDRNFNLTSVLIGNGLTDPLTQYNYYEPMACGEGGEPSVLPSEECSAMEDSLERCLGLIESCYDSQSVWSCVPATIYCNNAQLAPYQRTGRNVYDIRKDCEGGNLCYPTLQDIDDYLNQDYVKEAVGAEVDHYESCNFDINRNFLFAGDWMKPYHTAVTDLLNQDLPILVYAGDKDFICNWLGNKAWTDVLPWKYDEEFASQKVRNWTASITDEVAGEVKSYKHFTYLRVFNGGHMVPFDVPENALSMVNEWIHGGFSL
As to the kind of experiment: Flow digestion of Lys-Lys peptide through CPD-Y Acti Disk, modified ninhydrin assay. It is filed as biochemical, yeast. The conditions noted are these: 400 μM peptide; pH 5.75; flow 2 ml/min and 500 μl/min. On the procedure:
The peptide sequence is […](SEQ ID NO:73) (Sigma; herein after referred to as the Lys-Lys peptide). Analysis of the of the reaction rates required the use of a modified ninhydrin assay developed by Doi, et al. for the analysis of peptidase activity [Anal. Biochem. 118:173 (1981)]. Compared to the ninhydrin assays described above, the pH of the ninhydrin solution is reduced (pH=4.6) and the heating time is shortened (less than or equal to 20 minutes) such that only free amino acids react at appreciable rates. Incubation times were strictly controlled by performing incubation at elevated temperatures in a programmable thermocycler (Hybaid).
The Lys-Lys peptide was suspended at a concentration of 400 μM in 100 mM Citrate buffer, 100 mM NaCl, pH 5.75 and subjected to flow digestions at 2 ml/min and 500 μl/min. The amount of free lysine released was quantified by mixing 200 μl of flow sample with 200 μl 0.2 M NaCitrate, pH 4.6 and 100 μl of 2.5% ninhydrin in methyl cellusolve (Sigma), 0.03% ascorbic acid. […] The OD570 was determined and the values were converted to μM of product in order to determine the first order rate constant for the Lys-Lys bond in the CPD-Y Acti Disk flow digestion (k=0.160). This is the same value determined for the N-CBZ-Gly-Pro dipeptide. […]

Data set [2] has as its target T2, CPD-Y immobilized on cross-linked agarose (Saccharomyces cerevisiae, UniProt P00729).
T2 construct: purchased Pierce
T2 sequence (P00729 112-532): T1 sequence (P00729 112-532)
As to the kind of experiment: Recirculating digestion of control peptide over CPD-Y/agarose column, HPLC. It is filed as biochemical, yeast. The conditions noted are these: 100 μg/ml in PBS pH 6.5; gravity flow. On the procedure:
Ten milliliters of a solution containing 100 μg/ml of the control peptide in PBS (pH 6.5) was repeatedly passed through 1 ml of a matrix consisting of CPD-Y immobilized on cross-linked agarose (12.5 U/ml, Pierce). The 10 ml sample was applied to the top of a 1.0 cm Affinica column (Schleicher & Schuell) containing 1.0 ml of the immobilized CPD-Y/agarose and allowed to flow by gravity. An aliquot (100 μl) of the digestion reaction were taken and the remaining sample was reapplied to the column as the previous sample approached the matrix (i.e., the sample was recirculated through the column). Aliquots (100 μl) were removed after 1, 5, 11 and 17 passes over the immobilized CPD-Y/agarose column; 20 μl of these aliquots were analyzed by high pressure liquid chromatography (HPLC) using a TFA/acetonitrile gradient and a C-18 column (Hytach protein column). A Shimadzu HPLC spectrophotometer equipped with a UV recorder was adjusted to analyze the digestion products at 210 nm. The following buffers were used for the HPLC analysis. Buffer A consisted of 1.125% TFA and Buffer B consisted of 1.0% TFA in 80% acetonitrile. To achieve separation of the peptides produced by CPD-Y digestion of the control peptide, a gradient of 0-30% B buffer was applied over a 30 minute period.

Data set [3] has as its target T1, carboxypeptidase Y (CPD-Y) immobilized to Acti-Disk. The conditions noted are these: free CPD-Y; deduced from Kuhn; cited from earlier work.
Data set [4] shares this target. Nature of the data set: Flow digestion of control peptide through CPD-Y immobilized on Acti-Disk, HPLC analysis. It is filed as biochemical, yeast. On the procedure: To achieve limited, specific digestion of the control peptide (i.e., removal of the phenylalanine residue only) approximately 4 mg of CPD-Y (Sigma) was immobilized to a pre-activated (GTA) Acti-Disk Cartridge (25 mm; Arbor Technologies). The silicon-based matrix within the Acti-Disk is described in U.S. Pat. No. 3,862,030, the disclosure of which is herein incorporated by reference. Essentially, this matrix is a microporous fluid-permeable filter that has finely divided hydrophilic filler particles dispersed throughout a microporous matrix which are capable of binding large amounts of protein or enzyme. The matrix has an extremely large surface area (80 m^2 /gram) attributed to a large number of interconnected pores of non-uniform size distribution. The matrix is 60% porous and is commercially available in a wide variety of sizes and thicknesses for scale-up. This matrix represents a limited-diffusional matrix.
Immobilization of CPD-Y to the Acti-Disk cartridge was accomplished by recirculating 10 mls of a solution containing 1 mg/ml CPD-Y in 100 mM Na Citrate (pH 6.0) through the Acti-Disk according to the manufacturers protocol for 90 minutes at room temperature. The OD280 of the CPD-Y solution was measured before and after the immobilization procedure. The disk was washed extensively with 100 mM Tris-HCl (pH 8.0), 500 mM NaCl buffer until no protein was detected in the wash. The final concentration of enzyme per available fluid volume within the disk (65 nmoles/115 μl) was 0.565 mM (35 mg/ml). The porous nature of the Acti-Disk matrix immobilizes the carboxypeptidase enzyme on the […] of the matrix allowing a more consistent exposure of the substrate to enzyme than do the traditional cross linked agarose matrixes.
The control peptide (SEQ ID NO:70), at a concentration of 100 μg/ml, was passed through the CPD-Y Disk at flow rates ranging from 4 ml/min to 100 μl/min; a […] pump (Pharmacia) was used to regulate the flow. A 2 ml sample of the flow digestion at 4 ml/min was collected. The setting on the peristaltic pump was changed to 3 ml/min and the reaction was allowed to equilibrate. Five milliliters of the solution containing the control peptide processed at the lower flow rate (3 ml/min) was allowed to pass through the exit tubing before another 2 ml sample was collected. This procedure was repeated at each designated flow rate. An aliquot (25 μl) of each sample was run on the Hytach protein column as described above. In Table 4 the time refers to time spent in the reaction chamber (i.e., the Acti-Disk).
This value was determined by comparing the initial velocity of the control peptide CPD-Y-Acti-Disk flow digestion to the manufacturer's specific activity for free enzyme (i.e., enzyme present in solution) through the use of the Michaelis-Menton rate equation. The specific activity for Phe-Ala substrate 100 μmoles/mg (Sigma) was converted to activity by multiplying by the amount of enzyme immobilized within the Acti-Disk matrix (4 mg). […] This value compares well to the value that can be approximated from the Kcat data provided by Kuhn. The Kcat value for the cleavage of the Ser-Phe bond by free CPD-Y can be deduced from Kuhn's data to be approximately 400/min and this value was used to calculate the maximum initial velocity (Vo at [S]=79 μM) for 100% activity of the immobilized enzyme. […] 100% activity (Vo) for 79 μM flow digestion experiments is calculated using the theoretical KM =0.69 mM deduced from Kuhn's data, Vo=23.2 mM/min. Initial velocity Vo for control peptide flow experiments were determined by plotting μM of product produced versus seconds of incubation within the immobilization matrix of the Acti-Disk (see FIG. 29).
In FIG. 29, the log ([S]/[S]-[P]) (in μM) is plotted against the incubation time (in seconds). For the results shown in FIG. 29, the following calculations apply: the 4000 μl/min flow rate through 115 μl reaction matrix equals 1.73 seconds within the matrix. […]

For the sequence PLSRLSVAKK [Lys-Lys peptide], the “First order rate constant for the Lys-Lys bond (k)” value in data set [1] was found to be 0.160.
As to ALKDAQTNSSSF [control peptide], in data set [2], the “Passes needed to substantially decrease the amount of full length peptide” value was greater than 15 passes. Moreover, in data set [3], the “Estimated Km for the Ser-Phe bond” value is 0.69 mM. In addition, the “Kcat for the Ser-Phe bond” value in data set [3] was 400 min⁻¹. The “Initial reaction rate (Vo), observed” value in data set [4] (79 μM control peptide, initial slope of fitted curve) was roughly 3.6 mM/min. For the same sequence, the “Cleavage of the ultimate bond (Ser-Phe)” value is 86% in data set [4] (100 μg/ml, single pass, flow rate 500 μl/ml (so in the source)) and 96% in data set [4] (5 ml recirculated 20 minutes at the same flow rate). In addition, in data set [4] (Kcat 400/min × 0.565 mM enzyme), the “Vmax for 100% activity” value stood at 226 mM/min. In addition, in data set [4] ([S]=79 μM, theoretical KM 0.69 mM), the “Vo for 100% activity of the immobilized enzyme” value is 23.2 mM/min. Besides, the “Product” value was found to be 72 µM in data set [4] (control peptide 100 μg/ml, flow rate 0.25 ml/min, 27.6 sec in Acti-Disk); 68 µM in data set [4] (flow rate 0.50 ml/min, 13.8 sec); 59 µM in data set [4] (flow rate 1.0 ml/min, 6.9 sec); 54 µM in data set [4] (flow rate 1.5 ml/min, 4.6 sec); 48 µM in data set [4] (flow rate 2.0 ml/min, 3.45 sec); 45 µM in data set [4] (flow rate 2.5 ml/min, 2.76 sec). Further, the “Product” value in data set [4] (flow rate 3.0 ml/min, 2.3 sec) came to 43 µM; in data set [4] (flow rate 4.0 ml/min, 1.73 sec), 39 µM. The “% Product Remaining” value in data set [4] (control peptide 100 μg/ml, flow rate 0.25 ml/min, 27.6 sec in Acti-Disk, 0.46 min) turned out to be 8.3%; in data set [4] (flow rate 0.50 ml/min, 13.8 sec, 0.23 min), 14.0%; in data set [4] (flow rate 1.0 ml/min, 6.9 sec, 0.115 min) it was 25.6%; in data set [4] (flow rate 1.5 ml/min, 4.6 sec, 0.0766667 min) it was 32.4%; in data set [4] (flow rate 2.0 ml/min, 3.45 sec, 0.0575 min), 38.7%; in data set [4] (flow rate 2.5 ml/min, 2.76 sec, 0.046 min) it was 42.8%. For the same sequence, the “% Product Remaining” value is 46.4% in data set [4] (flow rate 3.0 ml/min, 2.3 sec, 0.0383333 min) and 51.5% in data set [4] (flow rate 4.0 ml/min, 1.73 sec, 0.0288333 min). For the same sequence, the “Cleavage of the second bond (Ser-Ser)” value in data set [4] (recirculation at 500 μl/min) is listed as “not detectably cleaved”. In addition, the “Control peptide molecules with carboxy-terminal phenylalanine removed” value in data set [4] (varied flow rate and substrate concentration) was “approximately 96%”.
